According to US20250230251A1 (Bristol-Myers Squibb, published 2025):
Where two headings read alike, the source gives them in different places. Blank lines part the entries; values can stand above or below the binder they belong to.

Key:
huIL-18Rβ-HisAvi [1] = target: T1, huIL-18Rβ-HisAvi (human, UniProt O95256 20-356, biotinylated in the Octet blocking assay); test: SPR screen, 1:1 fit
T1 construct: Soluble analyte in all SPR runs; captured on streptavidin sensors in the Octet assay; also called human IL-18Rβ; human IL-18Rβ-Avi-His
T1 sequence: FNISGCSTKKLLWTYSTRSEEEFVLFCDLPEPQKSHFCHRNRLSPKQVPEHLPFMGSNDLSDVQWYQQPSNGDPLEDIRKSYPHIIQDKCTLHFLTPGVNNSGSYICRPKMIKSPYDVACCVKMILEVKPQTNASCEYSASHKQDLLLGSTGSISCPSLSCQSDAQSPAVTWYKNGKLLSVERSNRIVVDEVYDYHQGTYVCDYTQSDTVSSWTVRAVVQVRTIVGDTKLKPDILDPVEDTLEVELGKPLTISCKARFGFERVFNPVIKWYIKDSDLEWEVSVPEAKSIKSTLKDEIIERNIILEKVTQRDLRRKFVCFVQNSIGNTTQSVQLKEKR

human IL-18Rβ on cells [2] = target: T2, human IL-18Rβ on cells (human, UniProt O95256 20-599); test: cell-based or functional assay
T2 sequence: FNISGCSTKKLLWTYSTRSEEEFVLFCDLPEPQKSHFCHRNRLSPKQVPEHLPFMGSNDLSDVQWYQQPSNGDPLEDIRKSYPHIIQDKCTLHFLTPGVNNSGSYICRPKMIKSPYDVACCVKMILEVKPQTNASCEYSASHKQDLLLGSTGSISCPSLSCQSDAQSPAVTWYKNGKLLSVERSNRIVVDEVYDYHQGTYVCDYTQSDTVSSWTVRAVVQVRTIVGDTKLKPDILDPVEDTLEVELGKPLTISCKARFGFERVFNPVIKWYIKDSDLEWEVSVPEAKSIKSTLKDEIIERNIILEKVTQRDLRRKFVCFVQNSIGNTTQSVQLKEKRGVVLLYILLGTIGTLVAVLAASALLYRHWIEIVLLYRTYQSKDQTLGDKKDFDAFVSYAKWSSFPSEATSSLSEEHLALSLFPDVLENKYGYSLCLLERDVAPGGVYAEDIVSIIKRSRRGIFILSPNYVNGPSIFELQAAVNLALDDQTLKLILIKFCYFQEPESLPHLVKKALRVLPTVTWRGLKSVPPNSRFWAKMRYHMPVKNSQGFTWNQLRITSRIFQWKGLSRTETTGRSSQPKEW

human IL-18Rβ on cells [3] = target: T2, human IL-18Rβ on cells; test: cell-based or functional assay; remark: listed apart in the source
human IL-18Rβ on cells [4] = target: T2, human IL-18Rβ on cells; test: cell-based or functional assay; remark: listed apart in the source
huIL-18Rβ-HisAvi [5] = target: T1, huIL-18Rβ-HisAvi; test: SPR T200, pH 5 against pH 7.4
huIL-18Rβ-HisAvi [6] = target: T1, huIL-18Rβ-HisAvi; test: SPR T200, mAb on anti-hFc, 37C, pH 5
huIL-18Rβ-HisAvi [7] = target: T1, huIL-18Rβ-HisAvi; test: SPR T200, mAb on anti-hFc, 37C, pH 6
huIL-18Rβ-HisAvi [8] = target: T1, huIL-18Rβ-HisAvi; test: SPR T200, mAb on anti-hFc, 37C, pH 7.4
huIL-18Rβ-HisAvi [9] = target: T1, huIL-18Rβ-HisAvi; test: SPR T200, mAb on anti-hFc, 37C, pH 7.4; remark: listed apart in the source
huIL-18Rβ-HisAvi [10] = target: T1, huIL-18Rβ-HisAvi; test: SPR T200, pH 7.4; sample stored at pH 8, T0
huIL-18Rβ-HisAvi [11] = target: T1, huIL-18Rβ-HisAvi; test: SPR T200, pH 7.4; sample stored at pH 6, 4 w 4C
huIL-18Rβ-HisAvi [12] = target: T1, huIL-18Rβ-HisAvi; test: SPR T200, pH 7.4; sample stored at pH 8, 4 w 4C
huIL-18Rβ-HisAvi [13] = target: T1, huIL-18Rβ-HisAvi; test: SPR T200, pH 7.4; sample stored at pH 6, 4 w 40C
huIL-18Rβ-HisAvi [14] = target: T1, huIL-18Rβ-HisAvi; test: SPR T200, pH 7.4; sample stored at pH 8, 4 w 40C
huIL-18Rβ-HisAvi [15] = target: T1, huIL-18Rβ-HisAvi; test: SPR T200, mAb on anti-hFc, 37C, pH 7.4; sample stored at pH 6, T0
[16] = target: the molecule itself; test: clone self-interaction BLI, antibody on AHQ sensor against 1 µM of the same antibody
huIL-18Rβ-HisAvi [17] = target: T1, huIL-18Rβ-HisAvi; test: SPR Biacore T200, mAb captured on anti-human Fc, huIL-18Rβ-HisAvi as analyte, PBST pH 5.5, 37 °C, 1:1 Binding fit
huIL-18Rβ-HisAvi [18] = target: T1, huIL-18Rβ-HisAvi; test: SPR Biacore T200, mAb captured on anti-human Fc, huIL-18Rβ-HisAvi as analyte, PBST pH 6.0, 37 °C, 1:1 Binding fit
human IL-18Rβ on cells [19] = target: T2, human IL-18Rβ on cells; test: cell-based or functional assay; remark: listed apart in the source
huIL-18Rβ-HisAvi [20] = target: T1, huIL-18Rβ-HisAvi; test: SPR T200, pH 7; sample T0
huIL-18Rβ-HisAvi [21] = target: T1, huIL-18Rβ-HisAvi; test: SPR T200, pH 7; sample 4 w 4C
huIL-18Rβ-HisAvi [22] = target: T1, huIL-18Rβ-HisAvi; test: SPR T200, pH 7; sample 2 w 40C
huIL-18Rβ-HisAvi [23] = target: T1, huIL-18Rβ-HisAvi; test: SPR T200, pH 7; sample 4 w 40C
huIL-18Rβ-HisAvi [24] = target: T1, huIL-18Rβ-HisAvi; test: SPR T200, mAb on anti-hFc, 37C, pH 6; remark: listed apart in the source
cyIL-18Rβ-HisAvi [25] = target: T3, cyIL-18Rβ-HisAvi (cynomolgus monkey); test: SPR T200, mAb on anti-hFc, 37C, pH 6
T3 construct: Soluble analyte in SPR; also called cyno IL-18Rβ; cynomolgus monkey IL-18Rβ
T3 chain: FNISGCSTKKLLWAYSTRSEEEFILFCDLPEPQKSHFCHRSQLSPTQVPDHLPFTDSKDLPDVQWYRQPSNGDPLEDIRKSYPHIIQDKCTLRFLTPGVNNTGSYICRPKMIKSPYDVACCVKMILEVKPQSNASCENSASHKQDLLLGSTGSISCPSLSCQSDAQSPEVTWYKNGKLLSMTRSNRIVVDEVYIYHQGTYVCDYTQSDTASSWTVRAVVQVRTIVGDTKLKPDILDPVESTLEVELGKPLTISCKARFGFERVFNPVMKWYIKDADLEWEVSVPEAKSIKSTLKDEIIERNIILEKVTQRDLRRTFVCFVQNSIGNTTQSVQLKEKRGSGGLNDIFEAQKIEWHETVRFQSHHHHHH

huIL-18Rβ-HisAvi [26] = target: T1, huIL-18Rβ-HisAvi; test: SPR T200, mAb on anti-hFc, 37C, pH 7.4; remark: listed apart in the source
cyIL-18Rβ-HisAvi [27] = target: T3, cyIL-18Rβ-HisAvi; test: SPR T200, mAb on anti-hFc, 37C, pH 7.4

Kd (huIL-18Rβ-HisAvi [1]): 0.094 nM
IC50, IL-18-induced IFNγ release, KG-1 cells (human IL-18Rβ on cells [2]): 0.3 nM
IC50, LPS+IL-12 dependent IFNg production, human whole blood (human IL-18Rβ on cells [3]): 0.3 nM
y-max, LPS+IL-12 dependent IFNg production, human whole blood (human IL-18Rβ on cells [3]): 98%
IC50, LPS+IL-12 dependent IFNg production, human whole blood (human IL-18Rβ on cells [4]): 1.12 nM
KD ratio (KD pH 5/KD pH 7) (huIL-18Rβ-HisAvi [5]): 0.33
kd ratio (kd pH 5/kd pH 7) (huIL-18Rβ-HisAvi [5]): 0.57
Kd (huIL-18Rβ-HisAvi [6]): 0.41 nM
koff (huIL-18Rβ-HisAvi [6]): 0.00022 s⁻¹
kon (huIL-18Rβ-HisAvi [6]): 530000 M⁻¹ s⁻¹
Kd (huIL-18Rβ-HisAvi [7]): 0.18 nM
koff (huIL-18Rβ-HisAvi [7]): 0.00024 s⁻¹
kon (huIL-18Rβ-HisAvi [7]): 1.4e+06 M⁻¹ s⁻¹
Kd (huIL-18Rβ-HisAvi [8]): 1.2 nM
koff (huIL-18Rβ-HisAvi [8]): 0.00038 s⁻¹
kon (huIL-18Rβ-HisAvi [8]): 310000 M⁻¹ s⁻¹
Kd (huIL-18Rβ-HisAvi [9]): 0.96 nM
koff (huIL-18Rβ-HisAvi [9]): 0.0005 s⁻¹
kon (huIL-18Rβ-HisAvi [9]): 520000 M⁻¹ s⁻¹
Kd (huIL-18Rβ-HisAvi [10]): 0.85 nM
koff (huIL-18Rβ-HisAvi [10]): 0.00046 s⁻¹
kon (huIL-18Rβ-HisAvi [10]): 540000 M⁻¹ s⁻¹
Kd (huIL-18Rβ-HisAvi [11]): 0.8 nM
koff (huIL-18Rβ-HisAvi [11]): 0.00045 s⁻¹
kon (huIL-18Rβ-HisAvi [11]): 570000 M⁻¹ s⁻¹
Kd (huIL-18Rβ-HisAvi [12]): 0.81 nM
koff (huIL-18Rβ-HisAvi [12]): 0.00043 s⁻¹
kon (huIL-18Rβ-HisAvi [12]): 520000 M⁻¹ s⁻¹
Kd (huIL-18Rβ-HisAvi [13]): 0.6 nM
koff (huIL-18Rβ-HisAvi [13]): 0.00044 s⁻¹
kon (huIL-18Rβ-HisAvi [13]): 730000 M⁻¹ s⁻¹
Kd (huIL-18Rβ-HisAvi [14]): 0.78 nM
koff (huIL-18Rβ-HisAvi [14]): 0.00046 s⁻¹
kon (huIL-18Rβ-HisAvi [14]): 590000 M⁻¹ s⁻¹
Kd (huIL-18Rβ-HisAvi [15]): 0.83 nM
koff (huIL-18Rβ-HisAvi [15]): 0.00047 s⁻¹
kon (huIL-18Rβ-HisAvi [15]): 570000 M⁻¹ s⁻¹
Kd (huIL-18Rβ-HisAvi [17]): 1.08 nM
koff (huIL-18Rβ-HisAvi [17]): 0.000511 s⁻¹
kon (huIL-18Rβ-HisAvi [17]): 472000 M⁻¹ s⁻¹
Kd (huIL-18Rβ-HisAvi [18]): 1.24 nM
koff (huIL-18Rβ-HisAvi [18]): 0.000504 s⁻¹
kon (huIL-18Rβ-HisAvi [18]): 405000 M⁻¹ s⁻¹
B1: P8 (antibody, human IgG1, kappa)
heavy: QVQLVQSGAEVKKPGASVRVSCKASGYTFTSYYMHWVRQAPGQGLEWMGIINPRGGYTTYAQKFQGRVTMTRDTSTSTVYMELSSLRSEDTAVYYCAKEGRVSPTDYYGMDVWGQGTTVTVSSASTKGPSVFPLAPSSKSTSGGTAALGCLVKDYFPEPVTVSWNSGALTSGVHTFPAVLQSSGLYSLSSVVTVPSSSLGTQTYICNVNHKPSNTKVDKRVEPKSCDKTHTCPPCPAPEAEGAPSVFLFPPKPKDTLMISRTPEVTCVVVDVSHEDPEVKFNWYVDGVEVHNAKTKPREEQYNSTYRVVSVLTVLHQDWLNGKEYKCKVSNKALPAPIEKTISKAKGQPREPQVYTLPPSREEMTKNQVSLTCLVKGFYPSDIAVEWESNGQPENNYKTTPPVLDSDGSFFLYSKLTVDKSRWQQGNVFSCSVMHEALHNHYTQKSLSLSPG
light: not shown
notes: Human IgG
Average CSI-BLI ΔResponse [16]: -0.01 nm

Average IC50, LPS+IL-12 dependent IFNg production, human whole blood (human IL-18Rβ on cells [19]): 1.23 nM
Kd (huIL-18Rβ-HisAvi [20]): 0.26 nM
koff (huIL-18Rβ-HisAvi [20]): 7.2e-05 s⁻¹
kon (huIL-18Rβ-HisAvi [20]): 270000 M⁻¹ s⁻¹
Kd (huIL-18Rβ-HisAvi [21]): 0.24 nM
koff (huIL-18Rβ-HisAvi [21]): 6.5e-05 s⁻¹
kon (huIL-18Rβ-HisAvi [21]): 270000 M⁻¹ s⁻¹
Kd (huIL-18Rβ-HisAvi [22]): 0.18 nM
koff (huIL-18Rβ-HisAvi [22]): 4.9e-05 s⁻¹
kon (huIL-18Rβ-HisAvi [22]): 270000 M⁻¹ s⁻¹
Kd (huIL-18Rβ-HisAvi [23]): 0.51 nM
koff (huIL-18Rβ-HisAvi [23]): 0.00014 s⁻¹
kon (huIL-18Rβ-HisAvi [23]): 280000 M⁻¹ s⁻¹
Kd (huIL-18Rβ-HisAvi [24]): 0.37 nM
koff (huIL-18Rβ-HisAvi [24]): 0.00017 s⁻¹
kon (huIL-18Rβ-HisAvi [24]): 460000 M⁻¹ s⁻¹
Kd (cyIL-18Rβ-HisAvi [25]): 13 nM
koff (cyIL-18Rβ-HisAvi [25]): 0.0031 s⁻¹
kon (cyIL-18Rβ-HisAvi [25]): 250000 M⁻¹ s⁻¹
Kd (huIL-18Rβ-HisAvi [26]): 0.63 nM
koff (huIL-18Rβ-HisAvi [26]): 0.00022 s⁻¹
kon (huIL-18Rβ-HisAvi [26]): 360000 M⁻¹ s⁻¹
Kd (cyIL-18Rβ-HisAvi [27]): 8.7 nM
koff (cyIL-18Rβ-HisAvi [27]): 0.0047 s⁻¹
kon (cyIL-18Rβ-HisAvi [27]): 540000 M⁻¹ s⁻¹
B2: P21-V1 (antibody, human IgG1, kappa, V domains shown)
VH: QVQLQESGPGLVKPSETLSLTCTVSGGSISNYYWTWIRQPPGKGLEWIGYISDSGSTNYNPSLKSRVTISVDTSKNQFSLKLSSVTAADTAVYYCARETIVVRGFYFYVMDVWGQGTTVTVSS
VL: AIQLTQSPSSLSASVGDRVTITCRASQGISSALAWYQQKPGKAPKLLIYEASNWESGVPSRFSGSGSGTDFTLTISSLQPEDFATYYCQQFNSYPWTFGQGTKVEIKR
notes: Variant of P21
